The values below come from patent US20260070949A1 (NOVOZYMES A S, published 2026).

In data set [1] the target is T1, active deamidase from Chryseobacterium sp-62563 (Chryseobacterium sp-62563).
T1 construct: Protein-glutamine glutaminase (EC 3.5.1.44), called 'active deamidase'
T1 chain: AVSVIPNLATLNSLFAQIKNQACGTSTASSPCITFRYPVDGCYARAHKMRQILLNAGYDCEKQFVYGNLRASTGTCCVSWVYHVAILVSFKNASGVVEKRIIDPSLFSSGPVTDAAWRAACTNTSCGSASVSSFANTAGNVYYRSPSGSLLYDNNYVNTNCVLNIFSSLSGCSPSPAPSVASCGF
The data set can be described thus: nanoDSF at 330 nm, Tm of the deamidase/inhibitor complex; active deamidase alone (SEQ ID NO: 4) gave 66.3° C. As to the method:
60 μL sample was transferred in replicates to a black-bottomed 384 well plate, and the plate was briefly centrifugated to remove potential air bubbles.
The thermal unfolding temperature of the samples was analyzed using a Prometheus NT.Plex system from NanoTemper Technologies GmbH, with the following settings: [0305] (i) Temperature scan rate: 3.3° C. per minute; and [0306] (ii) Temperature scan interval: 20-95° C.
Using the nanoDSF procedure, as described in Example 2, the thermal unfolding temperature of an active deamidase and the corresponding deamidase/inhibitor complex was measured.
On the technique in general: In DSF a fluorescence change marks the thermal transition of the protein.

Data set [2] addresses T2, deamidase inhibitor from Chryseobacterium sp-62563.
T2 chain: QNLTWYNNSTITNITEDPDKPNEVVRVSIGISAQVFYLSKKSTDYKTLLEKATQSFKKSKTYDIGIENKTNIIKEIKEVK

B1: deamidase inhibitor from Chryseobacterium sp-62563 (other)
chain: T2 chain
Take B1: in data set [1], the “NanoDSF thermal unfolding temperature” value came out at 70.1 ° C.

B2: active deamidase from Chryseobacterium sp-62563 (protein)
chain: T1 chain
B2: the “deamidase activity (% initial rate), fluorescence substrate FITC-PP-Dnp with glutamyl endopeptidase” value in data set [2] is “the deamidase activity (% initial rate) was significantly reduced”.
